The test has as its target HLA-B*08:01 (Homo sapiens, UniProt P01889). Put plainly: MHC binding assay (UV-ligand exchange, beta2m ELISA). The following applies: MHC class I binding score; binding to HLA-B*08:01 ranged by peptide exchange yield (UV-ligand exchange, β2m ELISA). An excerpt: Candidate peptides for T cell based therapies according to the present invention were further tested for their MHC binding capacity (affinity). The individual peptide-MHC complexes were produced by UV-ligand exchange, where a UV-sensitive peptide is cleaved upon UV-irradiation and exchanged with the peptide of interest as analyzed. Only peptide candidates that can effectively bind and stabilize the peptide-receptive MHC molecules prevent dissociation of the MHC complexes. To determine the yield of the exchange reaction, an ELISA was performed based on the detection of the light chain (β2m) of stabilized MHC complexes. The assay was performed as generally described in Rodenko et al. (Rodenko et al., 2006).
96 well MAXISorp plates (NUNC) were coated over night with 2 ug/ml streptavidin in PBS at room temperature, washed 4× and blocked for 1 h at 37° C. in 2% BSA containing blocking buffer. Refolded HLA-A*02:01/MLA-001 monomers served as standards, covering the range of 15-500 ng/ml. Peptide-MHC monomers of the UV-exchange reaction were diluted 100-fold in blocking buffer. Samples were incubated for 1 h at 37° C., washed four times, incubated with 2 ug/ml HRP conjugated anti-β2m for 1 h at 37° C., washed again and detected with TMB solution that is stopped with […]. Absorption was measured at 450 nm. Candidate peptides that show a high exchange yield (preferably higher than 50%, most preferred higher than 75%) are generally preferred for a generation and production of antibodies or fragments thereof, and/or T cell receptors or fragments thereof, as they show sufficient avidity to the MHC molecules and prevent dissociation of the MHC complexes.
(In an ELISA, binding on a coated surface is turned into a signal by an enzyme label.)
“118 (MAFVKHLL; listed as Homo sapiens) [compound 118]”: the Peptide exchange result is reported as “+++ (50% = +++)”. With “119 (FQRVSSVSF; listed as Homo sapiens) [compound 119]” the entry was “+++ (50% = +++)”.

In the case of “120 (AQRSEMVTL; listed as Homo sapiens) [compound 120]”, the Peptide exchange entry was “++ (20% = ++)”.

In the case of “121 (YSQLSISL; listed as Homo sapiens) [compound 121]”, the Peptide exchange entry is reported as “++ (20% = ++)”. To “122 (ESSAQPTAL; listed as Homo sapiens) [compound 122]” belongs “++ (20% = ++)”; to “123 (SLLPFTLSF; listed as Homo sapiens) [compound 123]”, “++ (20% = ++)”; to “124 (HSWTRTSV; listed as Homo sapiens) [compound 124]”, “+++ (50% = +++)”. With “125 (FPLVTPLL; listed as Homo sapiens) [compound 125]” the entry was “+++ (50% = +++)”; with “126 (TAAEARLSL; listed as Homo sapiens) [compound 126]”, “++ (20% = ++)”; with “127 (EPVIRTVSI; listed as Homo sapiens) [compound 127]”, “+++ (50% = +++)”. Consider “128 (HFHNRHVF; listed as Homo sapiens) [compound 128]”, for which the Peptide exchange result was “+++ (50% = +++)”. As to “129 (HRILRLPAL; listed as Homo sapiens) [compound 129]”, the Peptide exchange entry was “+++ (50% = +++)”.

As for “130 (LPAPYQHQL; listed as Homo sapiens) [compound 130]”, the Peptide exchange result is on record as “++ (20% = ++)”. With “131 (MSTKTTSI; listed as Homo sapiens) [compound 131]” the entry was “++ (20% = ++)”; with “132 (IPIQAHQI; listed as Homo sapiens) [compound 132]”, “+++ (50% = +++)”; with “133 (QATPRVRIL; listed as Homo sapiens) [compound 133]”, “++ (20% = ++)”. With “134 (DQRSRATL; listed as Homo sapiens) [compound 134]” the entry was “++ (20% = ++)”; with “135 (EYLETKRLAF; listed as Homo sapiens) [compound 135]”, “+ (0% = +)”; with “136 (KMFYRKDVM; listed as Homo sapiens) [compound 136]”, “+++ (50% = +++)”. With “137 (VQWKPPAL; listed as Homo sapiens) [compound 137]” the entry was “++ (20% = ++)”; with “138 (TQHLTVATL; listed as Homo sapiens) [compound 138]”, “+++ (50% = +++)”; with “139 (YGRIGISLF; listed as Homo sapiens) [compound 139]”, “++ (20% = ++)”. As for “140 (IAVDKPITL; listed as Homo sapiens) [compound 140]”, the Peptide exchange result is “++ (20% = ++)”.

In the case of “141 (AQLKLVAL; listed as Homo sapiens) [compound 141]”, the Peptide exchange entry was “++ (20% = ++)”. With “142 (YNLIYSMCL; listed as Homo sapiens) [compound 142]” the entry was “+++ (50% = +++)”; with “143 (DADLREQAL; listed as Homo sapiens) [compound 143]”, “++ (20% = ++)”; with “144 (IEQIRAVL; listed as Homo sapiens) [compound 144]”, “++ (20% = ++)”. To “145 (MIYRKALRL; listed as Homo sapiens) [compound 145]” belongs “++ (20% = ++)”; to “146 (FQTAHFYL; listed as Homo sapiens) [compound 146]”, “+++ (50% = +++)”; to “147 (HAMDGASHL; listed as Homo sapiens) [compound 147]”, “++ (20% = ++)”. To “148 (DVNPVSLQL; listed as Homo sapiens) [compound 148]” belongs “++ (20% = ++)”; to “149 (TQKSVQVL; listed as Homo sapiens) [compound 149]”, “++ (20% = ++)”.

On to “150 (MRSSYIREL; listed as Homo sapiens) [compound 150]”, for which the Peptide exchange entry is listed as “++ (20% = ++)”. With “151 (DRHLTNRVL; listed as Homo sapiens) [compound 151]” the entry was “++ (20% = ++)”; with “152 (FNKLVTEL; listed as Homo sapiens) [compound 152]”, “++ (20% = ++)”. With “153 (HAIPHYVTM; listed as Homo sapiens) [compound 153]” the entry was “++ (20% = ++)”; with “154 (VLKTLQEL; listed as Homo sapiens) [compound 154]”, “++ (20% = ++)”; with “155 (LPASFPAVL; listed as Homo sapiens) [compound 155]”, “++ (20% = ++)”. As to “156 (ILKEQSSSSF; listed as Homo sapiens) [compound 156]”, the Peptide exchange result is on record as “++ (20% = ++)”. As for “157 (QPYRFPQA; listed as Homo sapiens) [compound 157]”, the Peptide exchange result is “++ (20% = ++)”. With “158 (DVIIKGNGL; listed as Homo sapiens) [compound 158]” the entry was “++ (20% = ++)”; with “159 (DLRNKIIA; listed as Homo sapiens) [compound 159]”, “++ (20% = ++)”; with “160 (LPINNTHI; listed as Homo sapiens) [compound 160]”, “++ (20% = ++)”. Regarding “161 (DIVPPFSAF; listed as Homo sapiens) [compound 161]”, the Peptide exchange entry is reported as “++ (20% = ++)”. For “162 (LFKQTKINL; listed as Homo sapiens) [compound 162]”, the Peptide exchange entry is on record as “++ (20% = ++)”. With “163 (EVMAQFKEI; listed as Homo sapiens) [compound 163]” the entry was “++ (20% = ++)”; with “164 (LPAPIPTLL; listed as Homo sapiens) [compound 164]”, “++ (20% = ++)”. To “165 (QNSLRHNL; listed as Homo sapiens) [compound 165]” belongs “++ (20% = ++)”; to “166 (VLSGGRILAL; listed as Homo sapiens) [compound 166]”, “++ (20% = ++)”; to “167 (DMKITVSL; listed as Homo sapiens) [compound 167]”, “+++ (50% = +++)”.

For the substance “168 (HVQDFTAF; listed as Homo sapiens) [compound 168]”, the Peptide exchange result is recorded as “++ (20% = ++)”.

On to “169 (YELNNLHAL; listed as Homo sapiens) [compound 169]”, for which the Peptide exchange result is recorded as “++ (20% = ++)”. With “170 (SPANVRGQSL; listed as Homo sapiens) [compound 170]” the entry was “++ (20% = ++)”; with “171 (FPSQVPKQVL; listed as Homo sapiens) [compound 171]”, “++ (20% = ++)”; with “172 (PYEKVSRL; listed as Homo sapiens) [compound 172]”, “++ (20% = ++)”. Regarding “173 (YPLLKDPSL; listed as Homo sapiens) [compound 173]”, the Peptide exchange entry is on record as “+++ (50% = +++)”. With “174 (HAMPSPRIL; listed as Homo sapiens) [compound 174]” the entry was “++ (20% = ++)”; with “175 (MRFQQFLFA; listed as Homo sapiens) [compound 175]”, “+ (0% = +)”. To “176 (YVIQRQSVL; listed as Homo sapiens) [compound 176]” belongs “++ (20% = ++)”; to “177 (SVPVRSSPL; listed as Homo sapiens) [compound 177]”, “++ (20% = ++)”; to “178 (IPRLAVISI; listed as Homo sapiens) [compound 178]”, “++ (20% = ++)”. Consider “179 (LPLTEHEL; listed as Homo sapiens) [compound 179]”, for which the Peptide exchange result is “+++ (50% = +++)”.

Regarding “180 (LAVPIFVAL; listed as Homo sapiens) [compound 180]”, the Peptide exchange entry is listed as “++ (20% = ++)”. With “181 (SIRSSYSRF; listed as Homo sapiens) [compound 181]” the entry was “++ (20% = ++)”; with “182 (ILHLSAIAL; listed as Homo sapiens) [compound 182]”, “++++ (75% = ++++)”.

Take “183 (YVSKPGAQL; listed as Homo sapiens) [compound 183]”: the Peptide exchange entry is recorded as “++ (20% = ++)”. With “184 (DRLKPLKM; listed as Homo sapiens) [compound 184]” the entry was “++ (20% = ++)”; with “185 (MELKTVKPI; listed as Homo sapiens) [compound 185]”, “++ (20% = ++)”.

The values are drawn from patent publication US11433099B2, “Immunotherapy with B*08 restricted peptides and combination of peptides against cancers and related methods” (Immatics Biotechnologies GmbH, priority 2018, dated 2022).
